Assay results from US20250215108A1.

How the values were obtained:
[1] = biological target: recombinant hSIRPa-His (Sino Biologicals, reference 11612-H08H) (human) (UniProt P78324); assay: ELISA, immobilized hSIRPa-His, anti-human IgG detection
[2] = biological target: SIRPγ on peripheral human CD3+ T cells (human) (UniProt Q9P1W8); assay: flow cytometry on human CD3+ T cells, antibody at 10 micrograms/ml
[3] = biological target: SIRPγ on peripheral human CD3+ T cells (human) (UniProt Q9P1W8); assay: flow cytometry on peripheral human CD3+ T cells, 10 µg/ml; Exp 1 HV1
[4] = biological target: SIRPγ on peripheral human CD3+ T cells (human) (UniProt Q9P1W8); assay: flow cytometry on peripheral human CD3+ T cells, 10 µg/ml; Exp 1 HV2
[5] = biological target: SIRPa on human monocytes (human) (UniProt P78324); assay: flow cytometry on human monocytes v1/v1 (Fc receptors blocked), PE anti-human Fc; readout MFI
[6] = biological target: recombinant hSIRPb-His (Antibodies-online, reference ABIN3077231) (human) (UniProt Q5TFQ8); assay: BLI (Blitz): SIRPb-His on Ni-NTA biosensor, antibody at 20 µg/ml; 120 s association, 120 s dissociation
recombinant hSIRPb-His (Antibodies-online, reference ABIN3077231) (human), sequence (Q5TFQ8 30-371): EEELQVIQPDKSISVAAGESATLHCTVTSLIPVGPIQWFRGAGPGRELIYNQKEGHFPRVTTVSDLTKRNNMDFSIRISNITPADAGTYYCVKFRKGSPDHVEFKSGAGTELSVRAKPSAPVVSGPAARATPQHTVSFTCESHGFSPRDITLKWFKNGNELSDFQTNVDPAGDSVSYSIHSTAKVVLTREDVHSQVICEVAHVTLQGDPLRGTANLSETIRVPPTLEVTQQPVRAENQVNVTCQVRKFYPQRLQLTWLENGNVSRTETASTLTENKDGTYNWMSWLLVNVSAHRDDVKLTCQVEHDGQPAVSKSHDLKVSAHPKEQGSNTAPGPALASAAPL

[7] = biological target: SIRPa on human monocytes (human) (UniProt P78324); assay: flow cytometry on human monocytes v1/v1 (Fc receptors blocked), PE anti-human Fc; readout % stained monocytes
[8] = biological target: recombinant hSIRPa-His (Sino Biologicals, reference 11612-H08H) (human) (UniProt P78324); assay: SPR (Biacore 3000); SIRPa-His immobilised on a CM5 chip (500 RU), antibody injected; 3 min association, 10 min dissociation
[9] = biological target: recombinant hSIRPg-His (Sino Biologicals, reference 11828-H08H) (human) (UniProt Q9P1W8); assay: BLI (Blitz): SIRPg-His on Ni-NTA biosensor, antibody at 10 µg/ml or 20 µg/ml (Example 9); 120 s association, 120 s dissociation
recombinant hSIRPg-His (Sino Biologicals, reference 11828-H08H) (human), sequence (Q9P1W8 29-360): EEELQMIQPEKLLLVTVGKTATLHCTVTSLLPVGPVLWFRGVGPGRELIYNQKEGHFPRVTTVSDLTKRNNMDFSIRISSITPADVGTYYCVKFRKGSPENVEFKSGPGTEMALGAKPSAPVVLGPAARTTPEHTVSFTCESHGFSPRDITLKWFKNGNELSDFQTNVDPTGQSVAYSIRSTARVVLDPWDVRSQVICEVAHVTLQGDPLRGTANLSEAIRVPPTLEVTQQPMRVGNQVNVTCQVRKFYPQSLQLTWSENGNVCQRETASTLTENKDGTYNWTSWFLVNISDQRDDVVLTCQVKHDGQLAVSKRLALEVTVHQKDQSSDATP

SIRPγ on peripheral human CD3+ T cells (human), sequence (Q9P1W8 29-387): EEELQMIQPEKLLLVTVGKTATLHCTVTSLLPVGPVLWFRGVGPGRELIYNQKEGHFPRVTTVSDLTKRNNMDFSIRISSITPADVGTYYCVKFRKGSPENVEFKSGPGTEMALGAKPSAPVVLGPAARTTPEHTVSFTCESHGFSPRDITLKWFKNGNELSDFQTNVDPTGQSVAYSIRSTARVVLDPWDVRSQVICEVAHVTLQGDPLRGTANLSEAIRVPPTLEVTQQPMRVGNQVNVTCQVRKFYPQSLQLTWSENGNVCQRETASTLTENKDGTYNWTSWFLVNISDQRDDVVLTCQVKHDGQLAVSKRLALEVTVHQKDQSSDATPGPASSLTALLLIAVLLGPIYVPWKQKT

- EC50 [1]: 0.0033 µg/mL
- percent of T cells stained [2]: > 70%
- % of positive T-cells [3]: 80%
- % of positive T-cells [4]: 89.3%
- EC50 [5]: 0.378 µg/mL
- Kd [6]: 2.77 nM
- EC50 [7]: 0.26 µg/mL
- Kd [8]: 0.367 nM
- Kd [9]: 2.14 nM
B1: anti-human SIRPa antibody Kwar23 (Creative Biolabs) (antibody, from a related filing, V domains shown)
VH: EVQLQQSGAELVKPGASVKLSCTASGFNIKDYYIHWVQQRTEQGLEWIGRIDPEDGETKYAPKFQDKATITADTSSNTAYLHLSSLTSEDTAVYYCARWGAYWGQGTLVTVSS
VL: QIVLTQSPAIMSASPGEKVTLTCSASSSVSSSYLYWYQQKPGSSPKLWIYSTSNLASGVPARFSGSGSGTSYSLTISSMEAEDAASYFCHQWSSYPRTFGAGTKLELK
